Target: T1, GST-Lyn SH3 domain (human, UniProt P07948 63-123)
T1 construct: SH3 domain of human Lyn tyrosine kinase; Plasmid derived from pGEX-2T; also called GST fusion to the SH3 domain of Lyn
Assay: ELISA; competition ELBA: GST-Lyn SH3 domain coated at 5 μg/mL, peptide at 0.1 μM to 40 μM added along with TA8-alkaline phosphatase fusion for 1 h
Conditions: both partners purified

T1 sequence (P07948 63-123): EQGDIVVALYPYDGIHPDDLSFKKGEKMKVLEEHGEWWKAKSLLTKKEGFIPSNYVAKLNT

GMPTPPLPPRPANLGERQA
binding result: binds

— article PMC4701441, “Directed Evolution of a Highly Specific FN3 Monobody to the SH3 Domain of Human Lyn Tyrosine Kinase” (PLoS ONE, 2016)
